Drawing on patent publication US20100048468A1 (Amgen, published 2010), this text covers EC50 human, EC50 mouse and IC50 for 13 molecules.

Sequences and labels used below:
T1: mouse GLP-1 receptor (mouse, UniProt O35659 22-463)
T1 sequence (looked up): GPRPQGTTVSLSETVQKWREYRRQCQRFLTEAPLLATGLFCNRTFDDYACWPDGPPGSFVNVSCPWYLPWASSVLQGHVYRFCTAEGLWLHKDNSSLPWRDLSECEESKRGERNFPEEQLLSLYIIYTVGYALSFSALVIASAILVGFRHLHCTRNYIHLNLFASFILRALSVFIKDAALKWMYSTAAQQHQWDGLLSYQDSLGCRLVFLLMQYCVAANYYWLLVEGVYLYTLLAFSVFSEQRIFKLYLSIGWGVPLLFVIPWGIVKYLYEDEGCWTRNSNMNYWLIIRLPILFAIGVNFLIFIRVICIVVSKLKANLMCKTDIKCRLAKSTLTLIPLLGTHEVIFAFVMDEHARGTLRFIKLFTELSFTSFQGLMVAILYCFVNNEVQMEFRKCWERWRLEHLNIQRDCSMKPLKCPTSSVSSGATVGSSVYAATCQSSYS

No end group written: not given here.

One assay deals with T2, human GLP-1 receptor (human, UniProt P43220 24-463). Briefly: cell-based or functional assay.
Take MDHAEGTFTSDVSSYLEGQAAKEFIAWLVKGR (Not pegylated) [MD-GLP1 (SEQ ID NO: 261)]: the EC50 human came out at 0.3 nM.

In turn, MRHAEGTFTSDVSSYLEGQAAKEFIAWLVKGR (ends and bridges not checked, Not pegylated) [MR-GLP1 (SEQ ID NO: 254)] displayed an EC50 human of 8 nM.

MFHAEGTFTSDVSSYLEGQAAKEFIAWLVKGR (ends and bridges not checked, Not pegylated) [MF-GLP1 (SEQ ID NO: 266)] showed an EC50 human of 1 nM.

Consider MNHAEGTFTSDVSSYLEGQAAKEFIAWLVKGR (ends and bridges not checked, Not pegylated) [MN-GLP1 (SEQ ID NO: 263)], for which the EC50 human turned out to be 0.3 nM.

MHHAEGTFTSDVSSYLEGQAAKEFIAWLVKGR (ends and bridges not checked, Not pegylated) [MH-GLP1 (SEQ ID NO: 257)] came in with an EC50 human of 2 nM.

MIHAEGTFTSDVSSYLEGQAAKEFIAWLVKGR (not fully specified; ends and bridges not checked, Not pegylated) [MI-GLP1 (SEQ ID NO: 260)] had an EC50 human of 0.6 nM.

For AHAEGTFTSDVSSYLEGQAAKEFIAWLVKGR (Not pegylated) [A-GLP-1 (SEQ ID NO: 247)], the EC50 human turned out to be 0.2 nM.

Molecule SHAEGTFTSDVSSYLEGQAAKEFIAWLVKGR (ends and bridges not checked, Not pegylated; also called S-CLP-1) [S-GLP-1 (SEQ ID NO: 250)] registered an EC50 human of 0.4 nM.

Turning to VHAEGTFTSDVSSYLEGQAAKEFIAWLVKGR (ends and bridges not checked, Not pegylated) [V-GLP-1 (SEQ ID NO: 252)], the EC50 human was found to be 0.2 nM.

Regarding GHAEGTFTSDVSSYLEGQAAKEFIAWLVKGR (not fully specified, Not pegylated) [G-GLP-1 (SEQ ID NO: 248)], the EC50 human came to 1 nM.

MHAEGTFTSDVSSYLEGQAAKEFIAWLVKGR (Not pegylated) [M-GLP1 (SEQ ID NO: 256)]: the EC50 human stood at 0.086 nM.

Turning to PHAEGTFTSDVSSYLEGQAAKEFIAWLVKGR (ends and bridges not checked, Not pegylated; also called P-CLP-1) [P-GLP-1 (SEQ ID NO: 249)], the EC50 human amounted to 0.2 nM.

Consider THAEGTFTSDVSSYLEGQAAKEFIAWLVKGR (not fully specified; ends and bridges not checked, Not pegylated) [T-GLP-1 (SEQ ID NO: 251)], for which the EC50 human amounted to 0.3 nM.

In another assay the target is T1, mouse GLP-1 receptor. Briefly: cell-based or functional assay.
Regarding MDHAEGTFTSDVSSYLEGQAAKEFIAWLVKGR (Not pegylated) [MD-GLP1 (SEQ ID NO: 261)], the EC50 mouse came to 2 nM.

Regarding MRHAEGTFTSDVSSYLEGQAAKEFIAWLVKGR (ends and bridges not checked, Not pegylated) [MR-GLP1 (SEQ ID NO: 254)], the EC50 mouse is 41 nM.

In the case of MFHAEGTFTSDVSSYLEGQAAKEFIAWLVKGR (ends and bridges not checked, Not pegylated) [MF-GLP1 (SEQ ID NO: 266)], the EC50 mouse was found to be 6 nM.

As for MNHAEGTFTSDVSSYLEGQAAKEFIAWLVKGR (ends and bridges not checked, Not pegylated) [MN-GLP1 (SEQ ID NO: 263)], the EC50 mouse is 2 nM.

MHHAEGTFTSDVSSYLEGQAAKEFIAWLVKGR (ends and bridges not checked, Not pegylated) [MH-GLP1 (SEQ ID NO: 257)] gave an EC50 mouse of 11 nM.

As for MIHAEGTFTSDVSSYLEGQAAKEFIAWLVKGR (not fully specified; ends and bridges not checked, Not pegylated) [MI-GLP1 (SEQ ID NO: 260)], the EC50 mouse was 6 nM.

For AHAEGTFTSDVSSYLEGQAAKEFIAWLVKGR (Not pegylated) [A-GLP-1 (SEQ ID NO: 247)], the EC50 mouse came out at 0.8 nM.

In turn, SHAEGTFTSDVSSYLEGQAAKEFIAWLVKGR (ends and bridges not checked, Not pegylated; also called S-CLP-1) [S-GLP-1 (SEQ ID NO: 250)] registered an EC50 mouse of 2 nM.

In turn, VHAEGTFTSDVSSYLEGQAAKEFIAWLVKGR (ends and bridges not checked, Not pegylated) [V-GLP-1 (SEQ ID NO: 252)] showed an EC50 mouse of 1 nM.

Molecule GHAEGTFTSDVSSYLEGQAAKEFIAWLVKGR (not fully specified, Not pegylated) [G-GLP-1 (SEQ ID NO: 248)] returned an EC50 mouse of 3 nM.

On to MHAEGTFTSDVSSYLEGQAAKEFIAWLVKGR (Not pegylated) [M-GLP1 (SEQ ID NO: 256)], for which the EC50 mouse came to 0.5 nM.

Regarding PHAEGTFTSDVSSYLEGQAAKEFIAWLVKGR (ends and bridges not checked, Not pegylated; also called P-CLP-1) [P-GLP-1 (SEQ ID NO: 249)], the EC50 mouse was 1 nM.

THAEGTFTSDVSSYLEGQAAKEFIAWLVKGR (not fully specified; ends and bridges not checked, Not pegylated) [T-GLP-1 (SEQ ID NO: 251)] returned an EC50 mouse of 2 nM.

Another assay deals with T2, human GLP-1 receptor. Briefly: 125I-GLP-1 displacement, membranes of CHOK1 cells expressing human GLP-1 receptor. The protocol:
Membrane Preparation. […] Cells were sedimented at 1500 rpm for 10 minutes. The resulting pellets were homogenized in 15 mls of ice cold sucrose buffer (25 mM Tris-HCl, 0.32 M Sucrose, 0.25 g/L, sodium azide, pH 7.4) with a motorized, glass fitted, Teflon homogenizer. The homogenate was centrifuged at 48,000×g at 4° C. for 10 minutes, resuspended in 25 ml assay buffer (50 mM Tris-HCl, 5 mM MgCl₂, 10 mg/ml protease-free BSA, 0.1 mg/ml STI, and 0.1 mg/ml Pefabloc, pH 7.4) with a Tissue-Tearor (Biospec Products), then centrifuged again at 48,000×g for 10 minutes. The pellets were homogenized for a third time in 15 ml assay buffer using the Tissue-Tearor and again centrifuged at 48,000×g for 10 minutes. The resulting pellet was resuspended in assay buffer at a wet weight concentration of 4 mg/ml.
Ligand Binding Assay. Binding assays were performed in 96-well U-bottom plates. […] The reaction was terminated by rapid filtration through Unfilter-96 GF/C glass fiber filter plates (FilterMate 196 Packard Harvester, PerkinElmer, Shelton, Conn.) pre-soaked in 0.5% polyethylenimine, followed by three washes with 300 μl of cold 50 mM Tris-HCl, pH 7.4. Bound radioactivity was determined using a TopCount microplate scintillation and luminescence counter (Packard Instrument Company, PerkinElmer, Shelton, Conn.). Nonlinear regression analyses of resulting concentration curves were performed using GraphPad Prism (GraphPad Software, Inc., San Diego, Calif.).
What is called IC50 is the concentration needed to halve the response being measured. A lower IC50 goes with higher potency. Take MDHAEGTFTSDVSSYLEGQAAKEFIAWLVKGR (Not pegylated) [MD-GLP1 (SEQ ID NO: 261)]: the IC50 worked out at 82 nM. That is a double-digit nanomolar value.

Take MRHAEGTFTSDVSSYLEGQAAKEFIAWLVKGR (ends and bridges not checked, Not pegylated) [MR-GLP1 (SEQ ID NO: 254)]: the IC50 amounted to 590 nM.

Molecule MFHAEGTFTSDVSSYLEGQAAKEFIAWLVKGR (ends and bridges not checked, Not pegylated) [MF-GLP1 (SEQ ID NO: 266)] registered an IC50 of 180 nM. Against the preceding molecule, the IC50 is about 3.3-fold lower.

In turn, MNHAEGTFTSDVSSYLEGQAAKEFIAWLVKGR (ends and bridges not checked, Not pegylated) [MN-GLP1 (SEQ ID NO: 263)] showed an IC50 of 50 nM.

As for MHHAEGTFTSDVSSYLEGQAAKEFIAWLVKGR (ends and bridges not checked, Not pegylated) [MH-GLP1 (SEQ ID NO: 257)], the IC50 turned out to be 350 nM.

In the case of MIHAEGTFTSDVSSYLEGQAAKEFIAWLVKGR (not fully specified; ends and bridges not checked, Not pegylated) [MI-GLP1 (SEQ ID NO: 260)], the IC50 was 75 nM.

The molecule AHAEGTFTSDVSSYLEGQAAKEFIAWLVKGR (Not pegylated) [A-GLP-1 (SEQ ID NO: 247)] yielded an IC50 of 38 nM.

SHAEGTFTSDVSSYLEGQAAKEFIAWLVKGR (ends and bridges not checked, Not pegylated; also called S-CLP-1) [S-GLP-1 (SEQ ID NO: 250)] registered an IC50 of 53 nM.

Turning to VHAEGTFTSDVSSYLEGQAAKEFIAWLVKGR (ends and bridges not checked, Not pegylated) [V-GLP-1 (SEQ ID NO: 252)], the IC50 was determined as 32 nM.

GHAEGTFTSDVSSYLEGQAAKEFIAWLVKGR (not fully specified, Not pegylated) [G-GLP-1 (SEQ ID NO: 248)] displayed an IC50 of 80 nM.

On to PHAEGTFTSDVSSYLEGQAAKEFIAWLVKGR (ends and bridges not checked, Not pegylated; also called P-CLP-1) [P-GLP-1 (SEQ ID NO: 249)], for which the IC50 amounted to 38 nM.

The molecule THAEGTFTSDVSSYLEGQAAKEFIAWLVKGR (not fully specified; ends and bridges not checked, Not pegylated) [T-GLP-1 (SEQ ID NO: 251)] yielded an IC50 of 53 nM.
